Experimental data as given in the DeepSol protein solubility set.

Test: soluble on expression in E. coli; label from the status in PepcDB or PDB records

| Sequence | soluble on expression in E. coli |
| --- | --- |
| MSLDLKEIVQAGAFDLHIHTTASDGEYSPTAIVKKAKEIGLRTIAITDHDTLDGIEEAVIAGKRHGINVIPAIELTTKYKGTNVDILGYNVKASEKLQAILVQLKKHREGRAMQIIEKFNDIGFTITLDEVKQFSEDGVIARPHIAKAIVKKGYVLDYQTVFDEYLADGKPCAIDKMILTPEEGIKLIHEAGGKAILAHPVYLEDTLVRELLALDFDGIEVWHRNHDETDQEKYKMLATEFALIKTGGSDFHTDEHSLGQFGWKADEEGHHHHHH | soluble |
| MNLFYNKEAVGDVAFLQINPTEGEYNYVTQGDVVEIQNDGEVVGYNIFNASNKATLTGNGHIKLTETLVQAFQKAIEAAGFTYKLDADFTPKFVVGYVETKDKHPDADKLSVLSVDVATEKLQIVCGAPNVEAGQKVVVAKVGAVMPSGMVIKDAELRGVASSGMICSMKELGLPNAPQEKGIMVLSDDYTVGQSFFEVLEHHHHHH | soluble |
| MGSDKIHHHHHHMHSKTFGDVSIDEMVSRIKEFILKDNNCNYKITIGTDSQNKNLTKVVVVVAIHRIGSGGIFFYDIKHVHKISNVRQKIYYETALSLELASKVSHAFAEANIQEDIEIHADIGSNRKGKTYPLINEITGWITGEGYKYQIKPYSYAASCIADKISK | not soluble |
| GMSWEKSGKEGSLLRWYDVMEAERYEYTVGPAGEQFFNGLKQNKIIGSKCSKCGRIFVPARSYCEHCFVKIENYVEINKDEAYVDSYTIIYNDDEGNKLAQPVYIALIRFPNIEGGLLCYAEGNVKVGAKAKILSFQWPLRVKVD | soluble |
| MGSDKIHHHHHHMNKETQAMMLVPQGSIEGYIHAAYDYPMLTAEEEKELAERLYYHQDLDAAKTLILSHLRFVIHVARGYSGYGLPQADLIQEGNIGLMKAVKRFNPEVGVRLVSFAVHWIKAEIHEYVLRNWRIVKVATTKAQRKLFFNLRKTKQRLGWFSDKEVDMVANELGVSKEDVLEMESRMTGSDVGFDLPVDDDESYAPALYLEDKSSNFAAELENENFETQAADQVANALAELDERSQDIIKSRWLDDEKATLHDLAAKYNISAERVRQLETNALKKLKSAVSF | not soluble |
| MGSSHHHHHHSSGLVPRGSKKKKEMPFPNKKIELGDKLSESIRSFSTITDTEIIIGICRKNIPGWKEINESYIEVKQIFSGLTNQLFVVSIVNESMSLSLKHPRILFRIYGKHVGKFYDSKVELDVFRYLSNINIAPNIIADFPEGRIEEFIDGEPLTTKQLQLTHICVEVAKNMGSLHIINSKRADFPSRFDKEPILFKRIYLWREEAKIQVSKNNFQIDKELYSKILEEIDQLEELIMGGEKFSMERALELKLYSPAFSLVFAHNDLQENNLLQTQNNIRMIDYEYSAINFAGADIANYFCEYIYDYCSEKQPYFKFKYEDYPCEELRKLFISVYLSQTLQEQVMPSQQIVHIMTKAVEVFTLISHITWGLWSIARTPGYQPNSVEFDFTEYANTRFTHYLQKKKELIDQGILPLNSWLFNL | soluble |
| MAGSKKSNRREEILQALAQMLESAEGASRITTAKLAKQVGVSEAALYRHFPSKARMFEGLIEFIEEALMTRINRILDDEKDTLERIRMVMHLILAFSERNPGLTRILSGHALMFENERLRERINQLFERIETQLRQILRERKIREGKSFPVEERILAAQILGQVEGSLNRFVRSDFKYQPTANFDEYWALLSAQIK | not soluble |
| SGQRPSLPMLATDERSTDKESPNEDREFVPCSSLDVRRIYPKGPLLVLPEKIYLYSEPTVKELLPFDVVINVAEEANDLRMQVPAVEYHHYRWEHDSQIALDLPSLTSIIHAATTKREKILIHSQCGLSRSATLIIAYIMKYHNLSLRHSYDLLKSRADKINPSIGLIFQLMEWEVALNAKT | soluble |
| MAHHHHHHMLRRTARRAMGNSRFSGSKERDRIEQERRRRLLYDAAGNLQLGGLLLMMYDDFKKPAAIGLGMVAFLYGYNRLVVRLSREEEAEGLQLDAKSEAVARQTGKLKADRYLVKPNRQIDDPDFLNIPAFGGRGVSSSKLLSDDSVSGGALHSERKRS | not soluble |
| MGSDKIHHHHHHMEEITKIESIDQYDQLFGLETLHPLVNVIDFSKATKTVDYYRMNIGFYSLFLKDAKCGDLRYGRKYYDYQEGTVVCMAPGQVIGIDNRKQTPIRTKSIGLLFHPDLIRGTSLGQNIKHYSFFSYEVNEALHLSEQEREIVTDCIHKIQIELEHAIDKHSKQLIVRNIELLLDYCMRFYERQFITRNQANKDIIVKFEQLLDEYFQNQTALTEGLPSVKYFADKVCLSSNYFGDLIKKETGKTAQEYIQHRIIELAKERILEGSQTVSQIAYELGFQYPQHFSRLFKKNVGCTPNEYKQQN | not soluble |
| GALPDPVKPKAPKAVNPFHLGMAGYTFVNFDLDTTLKTLERLDIHYLCIKDFHLPLNSTDEQIRAFHDKCAAHKVTGYAVGPIYMKSEEEIDRAFDYAKRVGVKLIVGVPNYELLPYVDKKVKEYDFHYAIHLHGPDIKTYPDATDVWVHTKDLDPRIGMCLDVGHDLRNGCDPVADLKKYHTRVFDMHIKDVTDSSKAGVGIEIGRGKIDFPALIRMMREVNYTGMCSLEYEKDMKDPFLGIAESIGYFKAVSDLT | soluble |
| MKRAVITGLGIVSSIGNNQQEVLASLQEGRSGITFAQEFKDAGMRSHVWGDVKLQSEPKDLIDRKVLRFMSDASIYAYLAMQEAIADSGLSDSQVSNFRSGLVVGSGGGSPRNQVAGSDAMRTPRGLKGVGPYMVTKAMASGVSACLATPFKIKGVNYSISSACATSAHCIGHALELIQLGKQDIVFAGGGEELCWEMACEFDAMGALSTKYNDTPAKASRTYDQDRDGFVIAGGGGMVVVEELEHALARGAHIYAEIVGYGATSDGADMVAPSGEGAVRCMQMAMAGVDTPIDYMNVHGTSTPVGDVKELGAIREVFGNNTPAISSTKAMTGHSLGAAGVHEAIFSLLMVEHGFIAPSINIDNLDEQAQGMNIITETTQRELTTVMSNSFGFGGTNATLVMRKYQK | not soluble |
| MNYKSCFDIIGPIMIGPSSSHTAGALAIGLAARKLFGGTPEKIVIKYYESFADTHKGHGTDFAIIGGILGLAADDANVTQSIELAEEQGIEIQFLEMSEESPVKHANTACVTLSDATHEIHLTGISVGGGTIEVKYIELDGFNVQLHGPLPILLVINQEEQAMQAFKDTLQKNNIQVNAVSRYVEGNQILFIFDLDSAPISSVKEQLFSLDDTSKIILL | not soluble |
| MSSEYIIGRNPVIEALRSGRDINKIWIAEGAAKGQVQIVLALAKENKIILQHAPKKKLDQLVEGNHQGVIAQVAAYQYAELEDLFKVAEKRNEDPFFLILDEIEDPHNLGSIMRTADATGAHGIIIPKRRAVGLTASVAKASTGAIEYIPVARVTNLSRTIDELKERGLWIAGTDAKGKTDYRNLDGKMPIGLVIGSEGKGMSRIIGEKCDFLITLPMVGKVTSLNASVAASLLMYEVYRKRNEIGK | soluble |
| MIGDFWKESNGLATANDMDKNLAYMYTMKKKARGQLLFTKEKLAEYGSKVGLFPGVKDWFRRIRQYGADREVIIEHYIISSGLKEMIEGTSIAKDFKEIYATSFYFDDDGVAVWPAQVVNYTNKTQFLFRISKGVLNVNDEAVNDSFAPDEIRVPFHNMIYIGDSDTDIPCMKLVNSHGGYSIGVFNPKERNEEKAKKRVYKMIRDNRIGYF | not soluble |
| MHSLGWDIWNAVQPKEFYKGFLRRSIRPDGRKLSEYRDITLRKGPLVTTVDGSANASIGRTVALIGIQPKVIEWKETKKGSARSIVGQHCSLQVEFPSVCHRDIRSGRTLEEALLVKESLENVLEQILERDSFCIVPDKFYWHLQITAYCLSLDGNVIETFLLALYGALLDLQLPVVRASTSGDLLTLDPNQPKVTLPMKKLEDWPWVVPIGLFWNGPSEYYAVLDLSEEEENNMSSIVWIWNSQRGDKLAISKQKVGPLSVNILQEVLQLVKAHIDEVILRLQHGK | not soluble |
| MSDLQKLIQGKIKTIAFAHDSTRVIQCFIQYGNEEQRKQAFQELQGDLVELSKAKYSRNIVKKFLMYGSKPQAAEIIRSFKGHVRKMLRHSEASAIVEYAYNDKAILEQRNMLTEELYGNTFQLYKSADHPTLDKVLELQPAKLELIMDEMKQVLTPMAQKEAVIKHSLVHKVFLDFFTYAPPKPRSELIEAIREAVVYLAHTHDGARVAMHCLWHGTPKDRKVIVKTMKTYVERVANVSAARARFLKSD | not soluble |
| MGSDKIHHHHHHMSQMSFSDFEYAGKRKQTRRERFLAEMDQVVPWAGLLGLIEPFYPKAGGGRKPYPLETMLRIHLLQNWFSLSDPAMEEALYEITPMRQFAHLTLSAPIPEDTTIMNFRHLLEKHQLAPAILAVINGYLQEKGLSLRQGTIVDATIIHVPSSTKNKDGERDPEMHQTKKGNQYFFGMKAHISADVESGLVHHVHGTAANVADVTQVAELLHGEENAVYADAGYTGVEKREEHENRDVIWQIAARRSTYSKLNKRSLLYKAKRKIEYCKAQTRAKVEHPFRVIKRQFGYVKVRFRGLMKNTAQLTTLFALSNLWMARKRLMGLGELRI | not soluble |
| SKRFVIGIGGVTNGGKTTLAKSLQKHLPNCSVISQDDFFKPESEIDIDENGFLQYDVLEALNMEKMMSAVSCWMENPGSSAGPAALESAQGVPILIIEGFLLFNYKPLDTIWNRSYFLTVPYEECKRRRSTRVYEPPDPPGYFDGHVWPMYLKHRQEMSSITWDIVYLDGTRSEEDLFSQVYEDVKQELEKQNGL | soluble |
| MTYDPKTAVKQDSFSGKEPFNILLLGTDTGAFGRKEVRGNSDTMILVTVNPAKKKLSLMSIPRDTMARMIGTDNFSVHKINAAYNIGGAKMAMRTTSKVLNVPIKYYISMNMGGMRKIVDGVGGVTVTPPLTFTYDGYTFTKGKTVHLNGSQALAYSRMRYDDPKGDYGRQLRQREVIMSVLEHALSFNTLKNLDSILGSVSTSLRTNLTFDSMVKISKNYRKCTNNMSSDYLHGVGAMIGDASYQVMSDRELQRTSNIVRNDLGLDSMDIDNNETYQNSMNSQFDWNSGDSNQVYYIYDPYTDELWNGDRAYLEHHHHHH | soluble |
| MKVAVLDFGKTNSKLFVFGQDGGILDERRTQPKWTHQDGFSVLDEAALHDWALGAVTEAVENHGVEGVMVSGHGCTFALVDDAALTHPILDYEQEPPAEIAARIDHRIPDFAETFSPRLPLGFNYGRHMLWVQEVDPDAFAAAKSILGYPQYWSWRLGGRPVSEVSYLGCHSHLWAPRSQDFSSLVDAEGWRGQMPAFARAGAVIGERRLGSSSRPIAIHNGVHDSNAALHAYRRQELGPLTVVSTGTWVVVLNPGCPLDVLDRDRDMLVNVDVDGGPVPTIRFMGGREFAAISAGWQGAIPPGAVQQAIDAGIMALPSFAPGGPMPDRPGRLVGRTPYAAERAAAALLYVALMVDLCLDLIQSQDTVIVDGGLNAGGLLAGLLAELRPGQAFLQGATLEGSATGAAALAFESVGRDFVAEAPEPVHAARFAGLAGYRDAWRDRVGGQGTAIKAAGGARLEHHHHHH | not soluble |
| VRSYLLRIELADRPGSLGSLAVALGSVGADILSLDVVERGNGYAIDDLVVELPPGAMPDTLITAAEALNGVRVDSVRPHTGLLEAHRELELLDHVAAAEGATARLQVLVNEAPRVLRVSWCTVLRSSGGELHRLAGSPGAPETRANSAPWLPIERAAALDGGADWVPQAWRDMDTTMVAAPLGDTHTAVVLGRPGPEFRPSEVARLGYLAGIVATMLR | soluble |
| MNELVFLHSQYIEEEPYTTDEVIAKYSQIKRESVSKLIKKYQKDLEEFGKVGFEIRAMESGQKAKFYQLNEEQATLLITYLDNTEPVRRFKKALVRQFYDMKNGLYARRMERQKEKSVRKSMTDVIKELGLSPHYYKHYTDLVYKTALGFNAKQLREAREVSKKSTILDFLTSEEIEAVNKREQQVATLLTLKMDYDTIKSILNGQGVLYQTTLKMPVATN | not soluble |
